Experimental data published in patent US20230183753A1 (INTELLIA THERAPEUTICS, published 2023).

Biological target: WT1 peptide … (VLD peptide) pulsed on OCI-AML3 target cells
Test: cell-based or functional assay

- Cumulative Fold Change in T cell number after stimulation 1 with OCI-AML3 cells pulsed with 500 nM VLD peptide, EP + AAV engineered T cells: 7.9 fold
- Cumulative Fold Change in T cell number after stimulation 1 with OCI-AML3 cells pulsed with 500 nM VLD peptide, LNP + AAV engineered T cells: 7.2 fold
- Cumulative Fold Change in T cell number after stimulation 2 with OCI-AML3 cells pulsed with 500 nM VLD peptide, EP + AAV engineered T cells: 19 fold
- Cumulative Fold Change in T cell number after stimulation 2 with OCI-AML3 cells pulsed with 500 nM VLD peptide, LNP + AAV engineered T cells: 34.2 fold
- Cumulative Fold Change in T cell number after stimulation 3 with OCI-AML3 cells pulsed with 500 nM VLD peptide, EP + AAV engineered T cells: 27.1 fold
- Cumulative Fold Change in T cell number after stimulation 3 with OCI-AML3 cells pulsed with 500 nM VLD peptide, LNP + AAV engineered T cells: 120 fold
B1: WT1 targeting transgenic T cell receptor (tgTCR) (TCR, V domains shown)
V domain 1: DAGVIQSPRHEVTEMGQEVTLRCKPISGHDYLFWYRQTMMRGLELLIYFNNNVPIDDSGMPEDRFSAKMPNASFSTLKIQPSEPRDSAVYFCASRKTGGYSNQPQHFGDGTRLSILE
V domain 2: SQQPVQSPQAVILREGEDAVINCSSSKALYSVHWYRQKHGEAPVFLMILLKGGEQKGHEKISASFNEKKQQSSLYLTASQLSYSGTYFCGTAWINDYKLSFGAGTTVTVRA
